Assay results reported in patent publication US20260242735A1 (UNIVERSIT T BASEL, published 2026).

Tests used:
human wild-type CD33 = biological target: T1, human wild-type CD33 (human, UniProt P20138 18-364); experiment: flow cytometry, IgG at 0.50 ug/ml on HEK293-T cells expressing CD33 against vector alone
T1 construct: also called SIGLEC3; P67
Method: Binding of the antibodies to the transfected cells and the optimal assay conditions were evaluated in 384-well format. Detection of cellular expression was measured via high-throughput flow cytometry. Serial dilutions of each antibody were tested for immunoreactivity against cells expressing CD33 or vector alone. The optimal screening concentration for each antibody was determined based on the raw signal values and signal-to-background calculations. Each point represents the mean of four replicates.

human CD33 S355A = biological target: T2, human CD33 S355A (human, UniProt P20138 18-364); experiment: alanine scan; flow cytometry, HEK293-T cells expressing the mutant; normalised to WT CD33;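 further: antibodies (IgG or Fab) at doses pre-set by titration on wild-type CD33, duplicate readings with background fluorescence subtracted, mutants made by site-directed alanine substitution (alanine changed to serine)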
T2 construct: Alanine-scan mutant clone of CD33 transiently transfected into HEK293-T cells
T2 sequence (P20138 18-364 S355A limits assumed): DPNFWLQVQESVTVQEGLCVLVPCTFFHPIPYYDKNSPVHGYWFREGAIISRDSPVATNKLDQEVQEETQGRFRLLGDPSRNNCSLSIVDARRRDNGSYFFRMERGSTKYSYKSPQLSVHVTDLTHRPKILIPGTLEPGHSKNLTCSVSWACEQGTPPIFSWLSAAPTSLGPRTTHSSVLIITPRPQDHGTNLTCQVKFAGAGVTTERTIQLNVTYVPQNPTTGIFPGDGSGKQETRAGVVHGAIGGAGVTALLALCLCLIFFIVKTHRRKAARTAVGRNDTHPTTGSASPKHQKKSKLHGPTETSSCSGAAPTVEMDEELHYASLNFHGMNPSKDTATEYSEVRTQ
Method: (§1) An alanine scan on human CD33 was performed to the determine the residues on CD33 that are involved in binding to the antibodies investigated. […] Briefly, a mutation library of CD33 was created by high-throughput, site-directed mutagenesis. Each residue was individually mutated to alanine, with alanine codons mutated to serine. The mutant library was arrayed in 384-well microplates and transiently transfected into HEK293-T. Following transfection, cells were incubated with the indicated antibodies (IgG or Fab) at concentrations pre-determined using an independent immunofluorescence titration curve on wild type CD33. […] Binding of each antibody to each mutant clone was determined in duplicates. For each point, background fluorescence was subtracted from the raw data, which were then normalized to antibody reactivity with wild type CD33.
(§2) Critical residues for antibody binding (outlined in dark grey) were residues whose mutations led to a binding of the test Abs of less than 20%. Additional secondary residues (outlined in light grey) were identified that led to a binding of the test Abs of between 20 and 40% as compared to the wild type CD33.

human CD33 Y358A = biological target: T3, human CD33 Y358A (human, UniProt P20138 18-364); experiment: as above
T3 construct: Alanine-scan mutant clone of CD33 transiently transfected into HEK293-T cells
T3 sequence (P20138 18-364 Y358A limits assumed): as the sequence (P20138 18-364 S355A limits assumed) above, with A338S, Y341A counted along it
Method: as §1, §2

human CD33 M348A = biological target: T4, human CD33 M348A (human, UniProt P20138 18-364); experiment: as above
T4 construct: Alanine-scan mutant clone of CD33 transiently transfected into HEK293-T cells
T4 sequence (P20138 18-364 M348A limits assumed): as the sequence (P20138 18-364 S355A limits assumed) above, with M331A, A338S counted along it
Method: as §1, §2

human CD33 Q364A = biological target: T5, human CD33 Q364A (human, UniProt P20138 18-363); experiment: as above
T5 construct: Alanine-scan mutant clone of CD33 transiently transfected into HEK293-T cells
T5 sequence (P20138 18-364 Q364A limits assumed): as the sequence (P20138 18-364 S355A limits assumed) above, with A338S, Q347A counted along it
Method: as §1, §2

human CD33 E360A = biological target: T6, human CD33 E360A (human, UniProt P20138 18-364); experiment: as above
T6 construct: Alanine-scan mutant clone of CD33 transiently transfected into HEK293-T cells
T6 sequence (P20138 18-364 E360A limits assumed): as the sequence (P20138 18-364 S355A limits assumed) above, with A338S, E343A counted along it
Method: as §1, §2

human CD33 G347A = biological target: T7, human CD33 G347A (human, UniProt P20138 18-364); experiment: as above
T7 construct: Alanine-scan mutant clone of CD33 transiently transfected into HEK293-T cells
T7 sequence (P20138 18-364 G347A limits assumed): as the sequence (P20138 18-364 S355A limits assumed) above, with G330A, A338S counted along it
Method: as §1, §2

human CD33 P350A = biological target: T8, human CD33 P350A (human, UniProt P20138 18-364); experiment: as above
T8 construct: Alanine-scan mutant clone of CD33 transiently transfected into HEK293-T cells
T8 sequence (P20138 18-364 P350A limits assumed): as the sequence (P20138 18-364 S355A limits assumed) above, with P333A, A338S counted along it
Method: as §1, §2

human CD33 H346A = biological target: T9, human CD33 H346A (human, UniProt P20138 18-364); experiment: as above
T9 construct: Alanine-scan mutant clone of CD33 transiently transfected into HEK293-T cells
T9 sequence (P20138 18-364 H346A limits assumed): as the sequence (P20138 18-364 S355A limits assumed) above, with H329A, A338S counted along it
Method: as §1, §2

human CD33 S351A = biological target: T10, human CD33 S351A (human, UniProt P20138 18-364); experiment: as above
T10 construct: Alanine-scan mutant clone of CD33 transiently transfected into HEK293-T cells
T10 sequence (P20138 18-364 S351A limits assumed): as the sequence (P20138 18-364 S355A limits assumed) above, with S334A, A338S counted along it
Method: as §1, §2

human CD33 V361A = biological target: T11, human CD33 V361A (human, UniProt P20138 18-364); experiment: as above
T11 construct: Alanine-scan mutant clone of CD33 transiently transfected into HEK293-T cells
T11 sequence (P20138 18-364 V361A limits assumed): as the sequence (P20138 18-364 S355A limits assumed) above, with A338S, V344A counted along it
Method: as §1, §2

human CD33 T354A = biological target: T12, human CD33 T354A (human, UniProt P20138 18-364); experiment: as above
T12 construct: Alanine-scan mutant clone of CD33 transiently transfected into HEK293-T cells
T12 sequence (P20138 18-364 T354A limits assumed): as the sequence (P20138 18-364 S355A limits assumed) above, with T337A, A338S counted along it
Method: as §1, §2

human CD33 S359A = biological target: T13, human CD33 S359A (human, UniProt P20138 18-364); experiment: as above
T13 construct: Alanine-scan mutant clone of CD33 transiently transfected into HEK293-T cells
T13 sequence (P20138 18-364 S359A limits assumed): as the sequence (P20138 18-364 S355A limits assumed) above, with A338S, S342A counted along it
Method: as §1, §2

human CD33 T356A = biological target: T14, human CD33 T356A (human, UniProt P20138 18-364); experiment: as above
T14 construct: Alanine-scan mutant clone of CD33 transiently transfected into HEK293-T cells
T14 sequence (P20138 18-364 T356A limits assumed): as the sequence (P20138 18-364 S355A limits assumed) above, with A338S, T339A counted along it
Method: as §1, §2

human CD33 R362A = biological target: T15, human CD33 R362A (human, UniProt P20138 18-364); experiment: as above
T15 construct: Alanine-scan mutant clone of CD33 transiently transfected into HEK293-T cells
T15 sequence (P20138 18-364 R362A limits assumed): as the sequence (P20138 18-364 S355A limits assumed) above, with A338S, R345A counted along it
Method: as §1, §2

human CD33 D353A = biological target: T16, human CD33 D353A (human, UniProt P20138 18-364); experiment: as above
T16 construct: Alanine-scan mutant clone of CD33 transiently transfected into HEK293-T cells
T16 sequence (P20138 18-364 D353A limits assumed): as the sequence (P20138 18-364 S355A limits assumed) above, with D336A, A338S counted along it
Method: as §1, §2

human CD33 T363A = biological target: T17, human CD33 T363A (human, UniProt P20138 18-364); experiment: as above
T17 construct: Alanine-scan mutant clone of CD33 transiently transfected into HEK293-T cells
T17 sequence (P20138 18-364 T363A limits assumed): as the sequence (P20138 18-364 S355A limits assumed) above, with A338S, T346A counted along it
Method: as §1, §2

human CD33 K352A = biological target: T18, human CD33 K352A (human, UniProt P20138 18-364); experiment: as above
T18 construct: Alanine-scan mutant clone of CD33 transiently transfected into HEK293-T cells
T18 sequence (P20138 18-364 K352A limits assumed): as the sequence (P20138 18-364 S355A limits assumed) above, with K335A, A338S counted along it
Method: as §1, §2

human CD33 N349A = biological target: T19, human CD33 N349A (human, UniProt P20138 18-364); experiment: as above
T19 construct: Alanine-scan mutant clone of CD33 transiently transfected into HEK293-T cells
T19 sequence (P20138 18-364 N349A limits assumed): as the sequence (P20138 18-364 S355A limits assumed) above, with N332A, A338S counted along it
Method: as §1, §2

human CD33 E357A = biological target: T20, human CD33 E357A (human, UniProt P20138 18-364); experiment: as above
T20 construct: Alanine-scan mutant clone of CD33 transiently transfected into HEK293-T cells
T20 sequence (P20138 18-364 E357A limits assumed): as the sequence (P20138 18-364 S355A limits assumed) above, with A338S, E340A counted along it
Method: as §1, §2

T1 sequence (P20138 18-364 limits assumed): as the sequence (P20138 18-364 S355A limits assumed) above, with A338S counted along it

B1: Refmab #2 (antibody, human IgG1, V domains shown)
VH: QVQLVQSGAEVKKPGSSVKVSCKASGGTFSDYAISWVRQAPGQGLEWMGRIIPILGVADYAQKFQGRVTITADKSTRTAYMELSSLRSEDTAVYYCARNWADAFDIWGQGTMVTVSS
VL: DIQLTQSPSSLSASVGDRVTITCRASQGISSVLAWYQQKPGKAPKLLIYDASSLESGVPSRFSGSGSGTDFTLTISSLQPEDFATYYCQQFDSSITFGQGTKLEIK
notes: Full-length MAb format, human IgG1 Fc silent (PG-LALA)
Signal:Background (human wild-type CD33): 59 signal:background ratio

B2: Refmab #6 (antibody, V domains shown)
VH: QVQLQQPGAEVVKPGASVKMSCKASGYTFTSYYIHWIKQTPGQGLEWVGVIYPGNDDISYNQKFQGKATLTADKSSTTAYMQLSSLTSEDSAVYYCAREVRLRYFDVWGQGTTVTVSS
VL: EIVLTQSPGSLAVSPGERVTMSCKSSQSVFFSSSQKNYLAWYQQIPGQSPRLLIYWASTRESGVPDRFTGSGSGTDFTLTISSVQPEDLAIYYCHQYLSSRTFGQGTKLEIK
notes: Full-length format is human IgG1 Fc silent (PG-LALA); The alanine scan used IgG or Fab
Mean % WT Binding (human CD33 S355A): 98.9 % WT binding
Mean % WT Binding (human CD33 Y358A): 92 % WT binding
Mean % WT Binding (human CD33 M348A): 101 % WT binding
Mean % WT Binding (human CD33 Q364A): 94.4 % WT binding
Mean % WT Binding (human CD33 E360A): 93.5 % WT binding
Mean % WT Binding (human CD33 G347A): 95.2 % WT binding
Mean % WT Binding (human CD33 P350A): 108 % WT binding
Mean % WT Binding (human CD33 H346A): 104 % WT binding
Mean % WT Binding (human CD33 S351A): 112 % WT binding
Mean % WT Binding (human CD33 V361A): 76 % WT binding
Mean % WT Binding (human CD33 T354A): 99.3 % WT binding
Mean % WT Binding (human CD33 S359A): 82.5 % WT binding
Mean % WT Binding (human CD33 T356A): 99.5 % WT binding
Mean % WT Binding (human CD33 R362A): 107 % WT binding
Mean % WT Binding (human CD33 D353A): 92.1 % WT binding
Mean % WT Binding (human CD33 T363A): 105 % WT binding
Mean % WT Binding (human CD33 K352A): 94.1 % WT binding
Mean % WT Binding (human CD33 N349A): 91 % WT binding
Mean % WT Binding (human CD33 E357A): 91.2 % WT binding
